Measurements reported in patent US20020164759A1 (UNIVERSITY OF GEORGIA RESEARCH FOUNDATION, published 2002).

How the values were obtained:
[1] = target: Porphyromonas gingivalis dipeptidylpeptidase-7 (DPP-7), purified from strain HG66 (Porphyromonas gingivalis) (UniProt B2RKV3); test: cell-based or functional assay
[2] = target: T1, Porphyromonas gingivalis dipeptidylpeptidase-7 (DPP-7), purified from strain HG66 (Porphyromonas gingivalis, UniProt B2RKV3 24-712); test: cell-based or functional assay
T1 sequence: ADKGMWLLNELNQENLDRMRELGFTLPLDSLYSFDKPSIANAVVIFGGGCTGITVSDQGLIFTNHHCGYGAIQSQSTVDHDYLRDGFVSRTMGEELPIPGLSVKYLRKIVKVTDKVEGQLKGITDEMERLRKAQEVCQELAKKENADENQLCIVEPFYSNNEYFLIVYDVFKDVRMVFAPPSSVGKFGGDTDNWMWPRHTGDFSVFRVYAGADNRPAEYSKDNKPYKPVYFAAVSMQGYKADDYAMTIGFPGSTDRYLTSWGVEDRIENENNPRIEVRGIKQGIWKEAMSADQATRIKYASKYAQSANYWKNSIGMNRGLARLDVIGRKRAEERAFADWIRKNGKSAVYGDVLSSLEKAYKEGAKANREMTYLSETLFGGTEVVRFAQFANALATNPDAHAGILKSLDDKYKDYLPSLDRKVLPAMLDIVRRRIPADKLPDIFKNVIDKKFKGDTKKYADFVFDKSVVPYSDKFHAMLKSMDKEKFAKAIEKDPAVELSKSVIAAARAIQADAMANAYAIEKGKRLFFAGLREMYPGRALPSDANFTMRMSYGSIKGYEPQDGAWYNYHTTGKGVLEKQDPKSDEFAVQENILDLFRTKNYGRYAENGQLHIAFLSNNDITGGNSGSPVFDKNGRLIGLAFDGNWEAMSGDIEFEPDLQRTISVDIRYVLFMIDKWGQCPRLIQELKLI

[3] = target: T2, Trp-His-Trp-Leu-Glu-Leu-Lys-Pro-Gly-Glu-Pro-Met-Tyr (SEQ ID NO:14)
T2 chain: WHWLELKPGEPMY

[4] = target: T3, Trp-Ala-Gly-Gly-Asp-Ala-Ser-Gly-Glu (SEQ ID NO:10)
T3 chain: WAGGDASGE

[5] = target: T4, Ala-Pro-Val-Arg-Ser-Leu (SEQ ID NO:16)
T4 chain: APVRSL

[6] = target: T5, Phe-Leu-Arg-Glu-Pro-Val-Ile-Phe-Leu (SEQ ID NO:13)
T5 chain: FLREPVIFL

[7] = target: T6, Gln-Lys-Gln-Met-Ser-Asp-Arg-Arg-Glu (SEQ ID NO:17)
T6 chain: QKQMSDRRE

[8] = target: T7, Ile-Ala-Arg-Arg-His-Pro-Tyr-Phe-Leu (SEQ ID NO:11)
T7 chain: IARRHPYFL

[9] = target: T8, Lys-Ile-Ala-Gly-Tyr-His-Leu-Glu-Leu (SEQ ID NO:12)
T8 chain: KIAGYHLEL

[10] = target: carboxymethylated lysosyme
[11] = target: T9, Ser-Pro-Tyr-Ser-Ser-Glu-Thr-Thr (SEQ ID NO:15)
T9 chain: SPYSSETT

Molecule: Aprotinin (from UniProt P00974 36-93)
- % of residual activity of DPP-7 against H-Ala-Phe-pNA after preincubation with 0.5 mg/ml inhibitor [1]: 128%

Molecule: RF [Arg-Phe]
- % of residual activity of DPP-7 against H-Ala-Phe-pNA after preincubation with 100 mM compound [2]: 69%

Molecule: GA [Gly-Ala]
- % of residual activity of DPP-7 against H-Ala-Phe-pNA after preincubation with 100 mM compound [2]: 102%

Molecule: AG [Ala-Gly]
- % of residual activity of DPP-7 against H-Ala-Phe-pNA after preincubation with 100 mM compound [2]: 96%

B1: Porphyromonas gingivalis dipeptidylpeptidase-7 (DPP-7), purified from strain HG66 (protein)
chain: ADKGMWLLNELNQENLDRMRELGFTLPLDSLYSFDKPSIANAVVIFGGGCTGITVSDQGLIFTNHHCGYGAIQSQSTVDHDYLRDGFVSRTMGEELPIPGLSVKYLRKIVKVTDKVEGQLKGITDEMERLRKAQEVCQELAKKENADENQLCIVEPFYSNNEYFLIVYDVFKDVRMVFAPPSSVGKFGGDTDNWMWPRHTGDFSVFRVYAGADNRPAEYSKDNKPYKPVYFAAVSMQGYKADDYAMTIGFPGSTDRYLTSWGVEDRIENENNPRIEVRGIKQGIWKEAMSADQATRIKYASKYAQSANYWKNSIGMNRGLARLDVIGRKRAEERAFADWIRKNGKSAVYGDVLSSLEKAYKEGAKANREMTYLSETLFGGTEVVRFAQFANALATNPDAHAGILKSLDDKYKDYLPSLDRKVLPAMLDIVRRRIPADKLPDIFKNVIDKKFKGDTKKYADFVFDKSVVPYSDKFHAMLKSMDKEKFAKAIEKDPAVELSKSVIAAARAIQADAMANAYAIEKGKRLFFAGLREMYPGRALPSDANFTMRMSYGSIKGYEPQDGAWYNYHTTGKGVLEKQDPKSDEFAVQENILDLFRTKNYGRYAENGQLHIAFLSNNDITGGNSGSPVFDKNGRLIGLAFDGNWEAMSGDIEFEPDLQRTISVDIRYVLFMIDKWGQCPRLIQELKLI
- Peptides not cleaved (reverse-phase HPLC, mass spectrometry) [3]: Peptides not cleaved
- Peptides cleaved (hydrolysis products separated by reverse-phase HPLC, mass spectrometry) [4]: Trp-Ala-↓-Gly-Gly-Asp-Ala-Ser-Gly-Glu
- endopeptidase activity (azocazein): did not show any endopeptidase activity
- Peptides not cleaved (reverse-phase HPLC, mass spectrometry) [5]: Peptides not cleaved
- Peptides cleaved (hydrolysis products separated by reverse-phase HPLC, mass spectrometry) [6]: Phe-Leu-↓-Arg-Glu-Pro-Val-Ile-Phe-Leu
- Peptides not cleaved (reverse-phase HPLC, mass spectrometry) [7]: Peptides not cleaved
- Peptides cleaved (hydrolysis products separated by reverse-phase HPLC, mass spectrometry) [8]: Ile-Ala-↓-Arg-Arg-His-Pro-Tyr-Phe-Leu
- endopeptidase activity (insulin β chain): did not show any endopeptidase activity
- Peptides cleaved (hydrolysis products separated by reverse-phase HPLC, mass spectrometry) [9]: Lys-Ile-↓-Ala-Gly-Tyr-His-Leu-Glu-Leu
- endopeptidase activity (type I collagen): did not show any endopeptidase activity
- endopeptidase activity (gelatin): did not show any endopeptidase activity
- endopeptidase activity [10]: did not show any endopeptidase activity
- Peptides not cleaved (reverse-phase HPLC, mass spectrometry) [11]: Peptides not cleaved
